{"source": "patent US20250051437A1", "about": "(University of California, published 2025)", "key": {"[1]": {"biological_target": "T1, human cadherin-17 (CDH17), endogenously expressed on human cancer cell lines (LS513, SNU-C1, PaTu8988s, … (human, UniProt Q12864 23-832))", "T1 construct": "also called LS513 (Colon, CDH17+); HPAF2", "experiment": "KinExA, cell-based, SNUC1 cells"}, "[2]": {"biological_target": "T2, recombinant CDH17 extracellular domain (ECD) with 6x His tag (human, UniProt Q12864 23-787)", "T2 construct": "also called Recombinant CDH17 ECD-6xhis tag", "experiment": "ELISA on recombinant CDH17 ECD-6xHis"}, "[3]": {"biological_target": "T1, human cadherin-17 (CDH17), endogenously …", "experiment": "flow cytometry (iQue) on SNUC1 cells, 1 µg Ab"}, "[4]": {"biological_target": "T1, human cadherin-17 (CDH17), endogenously …", "experiment": "flow cytometry (iQue) on SNUC1 cells, 0.2 µg Ab"}, "[5]": {"biological_target": "T1, human cadherin-17 (CDH17), endogenously …", "experiment": "flow cytometry on LS513 cells (CDH17+), 20 µg/ml"}, "[6]": {"biological_target": "T1, human cadherin-17 (CDH17), endogenously …", "experiment": "flow cytometry (iQue) on PATU8988S cells, 1 µg Ab"}, "[7]": {"biological_target": "T1, human cadherin-17 (CDH17), endogenously …", "experiment": "flow cytometry (iQue) on PATU8988S cells, 0.2 µg Ab"}, "[8]": {"biological_target": "T3, mouse CDH17-mGFP fusion protein overexpressed on HEK293T cells (mouse, UniProt Q9R100 26-827)", "T3 construct": "also called HEK293T Mouse CDH17mGFP mass; not shown: mGFP fluorescent protein", "T3 sequence (Q9R100 26-827)": "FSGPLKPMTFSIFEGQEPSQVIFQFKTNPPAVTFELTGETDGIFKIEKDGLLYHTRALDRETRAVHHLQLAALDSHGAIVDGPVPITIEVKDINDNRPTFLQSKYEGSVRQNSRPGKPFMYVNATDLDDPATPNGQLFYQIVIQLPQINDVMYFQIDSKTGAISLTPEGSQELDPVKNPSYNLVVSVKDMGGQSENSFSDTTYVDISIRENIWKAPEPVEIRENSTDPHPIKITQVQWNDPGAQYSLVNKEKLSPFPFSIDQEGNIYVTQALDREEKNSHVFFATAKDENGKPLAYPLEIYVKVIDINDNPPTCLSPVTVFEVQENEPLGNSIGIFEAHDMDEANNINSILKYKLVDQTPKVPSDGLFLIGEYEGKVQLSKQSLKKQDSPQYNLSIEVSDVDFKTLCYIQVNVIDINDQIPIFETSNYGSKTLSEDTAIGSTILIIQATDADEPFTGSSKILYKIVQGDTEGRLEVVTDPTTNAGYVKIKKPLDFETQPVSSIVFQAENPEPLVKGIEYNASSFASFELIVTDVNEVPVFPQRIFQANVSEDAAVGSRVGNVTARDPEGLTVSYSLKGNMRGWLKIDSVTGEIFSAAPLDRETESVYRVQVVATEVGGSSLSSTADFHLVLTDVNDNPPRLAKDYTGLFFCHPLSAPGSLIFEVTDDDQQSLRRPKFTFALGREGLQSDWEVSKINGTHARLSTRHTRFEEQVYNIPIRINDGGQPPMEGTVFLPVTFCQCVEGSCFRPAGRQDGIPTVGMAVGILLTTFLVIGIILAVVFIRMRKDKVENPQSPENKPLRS", "experiment": "flow cytometry (BD C6) on HEK293T Mouse CDH17 mGFP cells", "method": "(§1) To determine relative antigen binding strengths of the humanized antibodies, FACS assays were carried out as essentially described in Example 1. […] Using a BD Biosciences Accuri™ C6 Flow Cytometer (San Jose, CA), antibody binding based on Alexa Fluor® 647 fluorescence was measured in the FL4-H channel and fusion protein overexpression based on GFP fluorescence was measured in the FL1-H channel."}, "[9]": {"biological_target": "T4, rat CDH17 fused to moxGFP, overexpressed on HEK293T cells (rat, UniProt P55281 22-827)", "T4 construct": "whole, on cells; also called HEK293T Rat CDH17mGFP mass pop; rat CDH17-moxGFP", "T4 sequence (P55281 22-827)": "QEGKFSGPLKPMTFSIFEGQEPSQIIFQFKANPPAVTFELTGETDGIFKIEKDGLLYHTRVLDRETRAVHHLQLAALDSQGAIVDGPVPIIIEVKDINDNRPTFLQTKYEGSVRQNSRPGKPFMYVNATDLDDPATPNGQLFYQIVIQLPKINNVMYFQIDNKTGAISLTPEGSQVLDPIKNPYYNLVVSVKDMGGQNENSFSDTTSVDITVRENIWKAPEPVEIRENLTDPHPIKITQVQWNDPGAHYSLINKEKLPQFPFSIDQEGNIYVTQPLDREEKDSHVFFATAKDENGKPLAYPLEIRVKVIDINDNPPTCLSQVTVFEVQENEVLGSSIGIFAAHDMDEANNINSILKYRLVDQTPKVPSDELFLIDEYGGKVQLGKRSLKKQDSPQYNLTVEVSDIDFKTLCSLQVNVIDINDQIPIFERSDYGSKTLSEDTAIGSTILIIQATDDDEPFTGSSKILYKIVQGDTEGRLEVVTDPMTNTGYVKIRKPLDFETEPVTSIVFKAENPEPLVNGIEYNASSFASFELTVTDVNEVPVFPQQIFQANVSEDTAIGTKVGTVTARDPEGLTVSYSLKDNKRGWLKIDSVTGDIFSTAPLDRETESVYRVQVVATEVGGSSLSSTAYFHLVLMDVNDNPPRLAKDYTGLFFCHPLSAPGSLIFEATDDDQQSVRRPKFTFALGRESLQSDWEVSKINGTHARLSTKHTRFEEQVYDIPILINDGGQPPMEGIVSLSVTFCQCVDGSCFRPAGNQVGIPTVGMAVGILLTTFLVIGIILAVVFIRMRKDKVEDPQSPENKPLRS", "experiment": "flow cytometry (BD C6) on HEK293T Rat CDH17 moxGFP cells", "method": "as §1"}, "[10]": {"biological_target": "T3, mouse CDH17-mGFP fusion protein …", "experiment": "flow cytometry on HEK293T mouse CDH17mGFP mass population, 20 µg/ml"}, "[11]": {"biological_target": "T5, human CDH17-mGFP fusion protein overexpressed on HEK293T cells (clone G11) (human, UniProt Q12864 23-832)", "T5 construct": "also called HEK293T CDH17mGFP Clone G11; HEK293T Human CDH17mGFP G11; not shown: mGFP fluorescent protein fused to CDH17", "experiment": "flow cytometry (iQue) on HEK293T CDH17 mGFP clone G11 (human), 1 µg Ab"}, "Peptide 7": {"biological_target": "T6, Peptide 7 (also: biotin label, position not given here)", "T6 construct": "LDANGII with the seventh residue I changed to A; also called LDANGIA", "T6 peptide": "LDANGIA", "experiment": "titration ELISA, biotinylated peptide on streptavidin-coated plate"}, "Peptide 1": {"biological_target": "T7, Peptide 1 (also: biotin label, position not given here)", "T7 construct": "also called Original 7-mer peptide; LDANGII", "T7 peptide": "LDANGII", "experiment": "titration ELISA, biotinylated peptide on streptavidin-coated plate"}, "Peptide 2": {"biological_target": "T8, Peptide 2 (also: biotin label, position not given here)", "T8 construct": "LDANGII with the first residue L changed to A; also called ADANGII", "T8 peptide": "ADANGII", "experiment": "titration ELISA, biotinylated peptide on streptavidin-coated plate"}, "Peptide 3": {"biological_target": "T9, Peptide 3 (also: biotin label, position not given here)", "T9 construct": "LDANGII with the second residue D changed to A; also called LAANGII", "T9 peptide": "LAANGII", "experiment": "titration ELISA, biotinylated peptide on streptavidin-coated plate"}, "Peptide 8": {"biological_target": "T10, Peptide 8 (also: biotin label, position not given here)", "T10 construct": "LDANGII with the third residue A changed to G; also called LDGNGII", "T10 peptide": "LDGNGII", "experiment": "titration ELISA, biotinylated peptide on streptavidin-coated plate"}, "Peptide 4": {"biological_target": "T11, Peptide 4 (also: biotin label, position not given here)", "T11 construct": "LDANGII with the fourth residue N changed to A; also called LDAAGII", "T11 peptide": "LDAAGII", "experiment": "titration ELISA, biotinylated peptide on streptavidin-coated plate"}, "Peptide 5": {"biological_target": "T12, Peptide 5 (also: biotin label, position not given here)", "T12 construct": "LDANGII with the fifth residue G changed to A; also called LDANAII", "T12 peptide": "LDANAII", "experiment": "titration ELISA, biotinylated peptide on streptavidin-coated plate"}, "Peptide 6": {"biological_target": "T13, Peptide 6 (also: biotin label, position not given here)", "T13 construct": "LDANGII with the sixth residue I changed to A; also called LDANGAI", "T13 peptide": "LDANGAI", "experiment": "titration ELISA, biotinylated peptide on streptavidin-coated plate"}}, "note": "Where no end group is shown, it is not given here.", "data": [{"binder": "humanized anti-CDH17 antibody 07-0663-h7 (antibody, human IgG1, kappa, V domains shown, Human IgG1 / kappa) VH: QVQLVQSGAEVKKPGSSVKISCKVSGYTFTDHTIHWMRQAPGQGLEWIGYIFPRDDIVVYAQKFQGRATLTADKSTSTAYMELSSLRSEDTAVYYCARPPYYYSRNFYFDYWGQGTTLTVSS VL: DIQMTQSPSSLSASVGDRVTITCRVSSIISSSKLHWYQQKPGKAPKPLIYGTSTLASGVPSRFSGSGSGTDYTLTISSLQPEDFATYYCQQWSNYPFTFGQGTKLEIKR", "values": [{"measurement": "Kd", "setting": "[1]", "value": 0.157, "unit": "nM"}, {"measurement": "EC50", "setting": "[2]", "value": 1.22, "unit": "nM"}, {"measurement": "Antibody Binding Activity by Flow iQue", "setting": "[3]", "value": 76100}, {"measurement": "Antibody Binding Activity by Flow iQue", "setting": "[4]", "value": 163000}, {"measurement": "Antibody Binding Activity by Flow Cytometry", "setting": "[5]", "value": 74700}, {"measurement": "Antibody Binding Activity by Flow iQue", "setting": "[6]", "value": 101000}, {"measurement": "Antibody Binding Activity by Flow iQue", "setting": "[7]", "value": 102000}, {"measurement": "binding result", "setting": "[8]", "value": "no binding (tested: 1 µg)"}, {"measurement": "binding result", "setting": "[9]", "value": "no binding (tested: 1 µg)"}, {"measurement": "Cross Reactivity by Flow", "setting": "[10]", "value": 2420}, {"measurement": "Antibody Binding Activity by Flow iQue", "setting": "[11]", "value": 172000}, {"measurement": "ELISA reading at 1500 ng/ml antibody, lower of two rows", "setting": "Peptide 7", "value": 2.74}, {"measurement": "ELISA reading at 1500 ng/ml antibody, upper of two rows", "setting": "Peptide 7", "value": 2.8}, {"measurement": "ELISA reading at 1500 ng/ml antibody, lower of two rows", "setting": "Peptide 1", "value": 2.76}, {"measurement": "ELISA reading at 1500 ng/ml antibody, upper of two rows", "setting": "Peptide 1", "value": 3.1}, {"measurement": "ELISA reading at 1500 ng/ml antibody, lower of two rows", "setting": "Peptide 2", "value": 2.71}, {"measurement": "ELISA reading at 1500 ng/ml antibody, upper of two rows", "setting": "Peptide 2", "value": 2.65}, {"measurement": "ELISA reading at 1500 ng/ml antibody, lower of two rows", "setting": "Peptide 3", "value": 0.0369}, {"measurement": "ELISA reading at 1500 ng/ml antibody, upper of two rows", "setting": "Peptide 3", "value": 0.0377}, {"measurement": "binding result", "setting": "Peptide 3", "value": "no binding (tested: 1500 ng/ml)"}, {"measurement": "ELISA reading at 1500 ng/ml antibody, lower of two rows", "setting": "Peptide 8", "value": 2.14}, {"measurement": "ELISA reading at 1500 ng/ml antibody, upper of two rows", "setting": "Peptide 8", "value": 2.1}, {"measurement": "ELISA reading at 1500 ng/ml antibody, lower of two rows", "setting": "Peptide 4", "value": 0.038}, {"measurement": "ELISA reading at 1500 ng/ml antibody, upper of two rows", "setting": "Peptide 4", "value": 0.0379}, {"measurement": "binding result", "setting": "Peptide 4", "value": "no binding (tested: 1500 ng/ml)"}, {"measurement": "ELISA reading at 1500 ng/ml antibody, lower of two rows", "setting": "Peptide 5", "value": 0.0383}, {"measurement": "ELISA reading at 1500 ng/ml antibody, upper of two rows", "setting": "Peptide 5", "value": 0.0394}, {"measurement": "binding result", "setting": "Peptide 5", "value": "no binding (tested: 1500 ng/ml)"}, {"measurement": "ELISA reading at 1500 ng/ml antibody, lower of two rows", "setting": "Peptide 6", "value": 0.0357}, {"measurement": "ELISA reading at 1500 ng/ml antibody, upper of two rows", "setting": "Peptide 6", "value": 0.0371}, {"measurement": "binding result", "setting": "Peptide 6", "value": "no binding (tested: 1500 ng/ml)"}]}]}
